As usually defined, the Km is the concentration of substrate that gives half-maximal velocity. In general, Vmax refers to the rate approached at saturating substrate.

Common to all, as to conditions: other: flavonoid as substrate; substrate inhibition equation (2); 37.0 °C
Substrate in data set [1]: COc1ccc([C@@H]2CC(=O)c3c(O)cc(O)cc3O2)cc1O
As to the kind of experiment: not read.

Substrate in data set [2]: O=C1C[C@@H](c2ccc(O)c(O)c2)Oc2cc(O)cc(O)c21
As to the kind of experiment: not read.

Substrate in data set [3]: Oc1cc(O)c2c(c1)O[C@H](c1ccc(O)c(O)c1)[C@H](O)C2
The data set is described as follows: not read.

Substrate in data set [4]: O=C1C[C@@H](c2ccc(O)c(O)c2)Oc2cc(O)cc(O)c21
As to the kind of experiment: Sulfation of flavonoids by recombinant hSULT1A1. The format is in vitro ADME, human.

Substrate in data set [5]: Oc1cc(O)c2c(c1)O[C@H](c1ccc(O)c(O)c1)[C@H](O)C2
As to the kind of experiment: Sulfation of flavonoids by recombinant hSULT1A1. The format is in vitro ADME, human.

B1: hSULT1A3 (Homo sapiens) (protein)
chain: MELIQDTSRPPLEYVKGVPLIKYFAEALGPLQSFQARPDDLLINTYPKSGTTWVSQILDMIYQGGDLEKCNRAPIYVRVPFLEVNDPGEPSGLETLKDTPPPRLIKSHLPLALLPQTLLDQKVKVVYVARNPKDVAVSYYHFHRMEKAHPEPGTWDSFLEKFMAGEVSYGSWYQHVQEWWELSRTHPVLYLFYEDMKENPKREIQKILEFVGRSLPEETMDFMVQHTSFKEMKKNPMTNYTTVPQELMDHSISPFMRKGMAGDWKTTFTVAQNERFDADYAEKMAGCSLSFRSEL
B1: the Km turned out to be 179 ± 3.7 µM in the data set “not read [1]”, 193 ± 3.3 µM in the data set “not read [2]” and 437 ± 10.1 µM in “not read [3]”. In addition, the Vmax was found to be 0.269 µmol/min/mg in the data set “not read [2]” and 0.442 µmol/min/mg in “not read [3]”. For the same protein, the Vmax/Km is 1390 µL/min/mg in “not read [2]” and 1010 µL/min/mg in the data set “not read [3]”.

B2: hSULT1A1 (Homo sapiens) (protein)
chain: MELIQDTSRPPLEYVKGVPLIKYFAEALGPLQSFQARPDDLLISTYPKSGTTWVSQILDMIYQGGDLEKCHRAPIFMRVPFLEFKAPGIPSGMETLKDTPAPRLLKTHLPLALLPQTLLDQKVKVVYVARNAKDVAVSYYHFYHMAKVHPEPGTWDSFLEKFMVGEVSYGSWYQHVQEWWELSRTHPVLYLFYEDMKENPKREIQKILEFVGRSLPEETVDFVVQHTSFKEMKKNPMTNYTTVPQEFMDHSISPFMRKGMAGDWKTTFTVAQNERFDADYAEKMAGCSLSFRSEL
Take B2: the Km in “not read [1]” was found to be 63.0 ± 0.6 µM; in data set [4], 80.8 ± 3.3 µM; in data set [5], 301 ± 89.0 µM. The results for the maximum rate (Vmax) (in “not read [1]”; in data set [4]; in data set [5]) were 0.0927 µmol/min/mg, 0.0986 µmol/min/mg and 0.188 µmol/min/mg, respectively. Besides, the figures for the Vmax/Km (in “not read [1]”; in data set [4]; in data set [5]) were 1470 µL/min/mg, 1220 µL/min/mg and 620 µL/min/mg, respectively.

These data come from publication PMC3106293.
